Test results from article PMC7617353, “Molecular basis of FIGNL1 in dissociating RAD51 from DNA and chromatin” (Science (New York, N.Y.), 2024).
Values belong to the binder of their own block, whether it stands above or below them.

B2: FIGNL1ΔN(E501Q) (domain or fragment, human, UniProt Q6PIW4 287-674, looked up)
chain: KEDSSLPTFKTAKEQLWVDQQKKYHQPQRASGSSYGGVKKSLGASRSRGILGKFVPPIPKQDGGEQNGGMQCKPYGAGPTEPAHPVDERLKNLEPKMIELIMNEIMDHGPPVNWEDIAGVEFAKATIKEIVVWPMLRPDIFTGLRGPPKGILLFGPPGTGKTLIGKCIASQSGATFFSISASSLTSKWVGEGEKMVRALFAVARCQQPAVIFIDQIDSLLSQRGDGEHESSRRIKTEFLVQLDGATTSSEDRILVVGATNRPQEIDEAARRRLVKRLYIPLPEASARKQIVINLMSKEQCCLSEEEIEQIVQQSDAFSGADMTQLCREASLGPIRSLQTADIATITPDQVRPIAYIDFENAFRTVRPSVSPKDLELYENWNKTFGCGK
notes: Six copies in the cryo-EM hexamer with ATP.Mg2+ and RAD51; also called E501Q mutant; source: E. coli BL21(DE3), purified as the wild type (HisTrap, StrepTrap, SEC)
B3: RAD51 (natural protein, human, UniProt Q06609 1-339, looked up)
chain: MAMQMQLEANADTSVEEESFGPQPISRLEQCGINANDVKKLEEAGFHTVEAVAYAPKKELINIKGISEAKADKILAEAAKLVPMGFTTATEFHQRRSEIIQITTGSKELDKLLQGGIETGSITEMFGEFRTGKTQICHTLAVTCQLPIDRGGGEGKAMYIDTEGTFRPERLLAVAERYGLSGSDVLDNVAYARAFNTDHQTQLLYQASAMMVESRYALLIVDSATALYRTDYSGRGELSARQMHLARFLRMLLRLADEFGVAVVITNQVVAQVDGAAMFAADPKKPIGGNIIAHASTTRLYLRKGRGETRICKIYDSPCLPEAEAMFAINADGVGDAKD
modifications: cysteine reactive RED-MALEIMIDE label (only in the MST with labelled RAD51)
notes: RAD51, expressed without tags; PDB 8R64 holds only residues 2-13 of it; also called RAD51 recombinase

Key:
RAD51 [1] = molecular target: T1, RAD51 (human, UniProt Q06609 1-339, cysteine reactive RED-MALEIMIDE label (only in the MST with labelled RAD51)); assay: MST
T1 chain: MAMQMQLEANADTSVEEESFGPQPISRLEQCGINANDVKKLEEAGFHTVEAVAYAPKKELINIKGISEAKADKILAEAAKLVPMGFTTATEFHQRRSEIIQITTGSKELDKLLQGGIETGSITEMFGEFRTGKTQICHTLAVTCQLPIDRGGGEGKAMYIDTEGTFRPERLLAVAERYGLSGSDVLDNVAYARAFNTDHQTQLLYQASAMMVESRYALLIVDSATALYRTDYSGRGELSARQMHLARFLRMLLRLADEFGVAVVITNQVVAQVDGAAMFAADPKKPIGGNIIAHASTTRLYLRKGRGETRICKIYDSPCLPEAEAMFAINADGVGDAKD

[2] = molecular target: T2, FIGNL1ΔN (human FIGNL1 residues 287-674) (human, UniProt Q6PIW4 287-674); assay: cryo-EM structure; 5µM FIGNL1ΔN with 1mM ATPγS and 5mM MgCl2, 15 minutes at 37°C in EM buffer; planar hexamer, 9.2Å map
T2 construct: Monomer by SEC-MALLS after purification; hexamer with ATPγS by cryo-EM; source: E. coli BL21(DE3), purified (HisTrap, StrepTrap, SEC Superdex 200 increase)
T2 sequence (looked up): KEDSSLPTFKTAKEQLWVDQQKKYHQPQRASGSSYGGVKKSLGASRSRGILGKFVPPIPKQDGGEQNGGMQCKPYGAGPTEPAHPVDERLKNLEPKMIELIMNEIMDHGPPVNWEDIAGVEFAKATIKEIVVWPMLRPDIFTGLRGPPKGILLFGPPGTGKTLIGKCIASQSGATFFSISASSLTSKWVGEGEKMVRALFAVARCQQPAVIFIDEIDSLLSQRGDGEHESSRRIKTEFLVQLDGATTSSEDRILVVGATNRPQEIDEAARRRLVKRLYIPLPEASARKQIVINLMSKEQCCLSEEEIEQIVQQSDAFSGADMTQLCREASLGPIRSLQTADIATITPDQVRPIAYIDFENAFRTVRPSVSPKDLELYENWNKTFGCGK

[3] = molecular target: the molecule itself; assay: cryo-EM structure; 10μM FIGNL1ΔN(E501Q) with 10μM RAD51, 1mM ATP, 5mM MgCl2, 20 mM Tris-HCl pH 8.0, 100 mM NaCl, 10 minutes at 37°C; whole complex ~8 Å, focused hexamer with RAD51 N-terminus 2.9 Å
RAD51 [4] = molecular target: B3; assay: as above; settings: both partners purified
FIGNL1ΔN(E501Q) [5] = molecular target: T3, FIGNL1ΔN(E501Q) (human, UniProt Q6PIW4 287-674, E501Q); assay: MST
T3 sequence: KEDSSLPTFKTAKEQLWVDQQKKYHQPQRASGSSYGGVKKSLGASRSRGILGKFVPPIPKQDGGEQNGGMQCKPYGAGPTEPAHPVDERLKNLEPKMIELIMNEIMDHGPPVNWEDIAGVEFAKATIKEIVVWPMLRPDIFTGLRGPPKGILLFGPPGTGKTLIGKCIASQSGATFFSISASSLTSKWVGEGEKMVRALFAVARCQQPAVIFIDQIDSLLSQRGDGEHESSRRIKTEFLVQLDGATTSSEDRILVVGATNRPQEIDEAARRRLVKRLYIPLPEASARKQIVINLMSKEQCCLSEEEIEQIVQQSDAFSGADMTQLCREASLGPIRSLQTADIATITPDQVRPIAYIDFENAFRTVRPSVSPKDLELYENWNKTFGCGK

[6] = molecular target: T2, FIGNL1ΔN (human FIGNL1 residues 287-674); assay: MST; 100nM RED-MALEIMIDE labelled RAD51 with a serial dilution of FIGNL1ΔN (and mutants); 20mM Tris pH 8.0, 100mM NaCl, 1mM ATP, 5mM MgCl2, 0.05% TWEEN-20; 25°C; settings: both partners purified
FIGNL1ΔN(E501Q) [7] = molecular target: B2; assay: as above; settings: both partners purified
[8] = molecular target: T4, FIGNL1ΔN pore loop 1 mutant (K473E,W474A) (human, UniProt Q6PIW4 287-674, K473E | W474A); assay: as above; settings: both partners purified
T4 construct: also called PL mutant; source: E. coli BL21(DE3), purified as the wild type (HisTrap, StrepTrap, SEC)
T4 sequence (looked up): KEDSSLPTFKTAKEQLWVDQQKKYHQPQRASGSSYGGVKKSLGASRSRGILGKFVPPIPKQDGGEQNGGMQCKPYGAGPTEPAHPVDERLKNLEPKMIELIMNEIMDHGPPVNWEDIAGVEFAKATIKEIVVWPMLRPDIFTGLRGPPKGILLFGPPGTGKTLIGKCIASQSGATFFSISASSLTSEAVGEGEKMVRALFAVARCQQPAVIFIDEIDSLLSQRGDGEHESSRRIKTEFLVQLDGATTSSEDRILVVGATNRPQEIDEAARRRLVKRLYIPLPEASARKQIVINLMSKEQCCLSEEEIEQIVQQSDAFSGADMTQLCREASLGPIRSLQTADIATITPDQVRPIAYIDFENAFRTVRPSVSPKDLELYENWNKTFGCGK

[9] = molecular target: T5, FIGNL1ΔN pore loop 1 mutant (K473E,W474A) (human, UniProt Q6PIW4 287-674, K473E | W474A); assay: MST
T5 sequence: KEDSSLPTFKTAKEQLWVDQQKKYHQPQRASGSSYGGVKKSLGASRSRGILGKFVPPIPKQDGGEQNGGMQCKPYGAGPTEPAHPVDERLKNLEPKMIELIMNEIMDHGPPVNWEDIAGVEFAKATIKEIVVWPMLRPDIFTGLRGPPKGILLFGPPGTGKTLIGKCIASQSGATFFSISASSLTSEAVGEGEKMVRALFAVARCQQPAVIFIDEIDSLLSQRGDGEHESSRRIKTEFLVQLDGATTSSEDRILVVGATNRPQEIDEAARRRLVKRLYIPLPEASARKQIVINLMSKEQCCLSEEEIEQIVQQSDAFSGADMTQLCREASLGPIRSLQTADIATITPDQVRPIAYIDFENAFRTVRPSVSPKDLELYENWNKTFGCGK

[10] = molecular target: T6, FIGNL1ΔN with an N-terminal YBBR-tag, labelled (human, UniProt Q6PIW4 287-674, labelled as previously described (refs 59, 60)); assay: MST
T6 chain: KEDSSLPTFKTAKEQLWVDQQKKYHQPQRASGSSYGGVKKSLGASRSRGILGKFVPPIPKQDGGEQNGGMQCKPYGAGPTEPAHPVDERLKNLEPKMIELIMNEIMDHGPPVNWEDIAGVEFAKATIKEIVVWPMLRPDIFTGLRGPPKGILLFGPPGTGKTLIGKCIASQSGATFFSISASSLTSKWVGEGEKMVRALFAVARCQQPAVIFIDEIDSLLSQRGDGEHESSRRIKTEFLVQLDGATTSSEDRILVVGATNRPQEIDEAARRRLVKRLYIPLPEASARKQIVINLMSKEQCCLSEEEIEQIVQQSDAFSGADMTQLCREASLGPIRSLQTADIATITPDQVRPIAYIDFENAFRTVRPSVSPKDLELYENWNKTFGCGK

[11] = molecular target: T7, FIGNL1ΔN with an N-terminal YBBR-tag, labelled (human, UniProt Q6PIW4 287-674, labelled as previously described (refs 59, 60)); assay: MST; 100nM FIGNL1ΔN labelled at an N-terminal YBBR-tag with a serial dilution of RAD51 and RAD51ΔN; measured as in the labelled RAD51 experiments; settings: both partners purified
T7 sequence (looked up): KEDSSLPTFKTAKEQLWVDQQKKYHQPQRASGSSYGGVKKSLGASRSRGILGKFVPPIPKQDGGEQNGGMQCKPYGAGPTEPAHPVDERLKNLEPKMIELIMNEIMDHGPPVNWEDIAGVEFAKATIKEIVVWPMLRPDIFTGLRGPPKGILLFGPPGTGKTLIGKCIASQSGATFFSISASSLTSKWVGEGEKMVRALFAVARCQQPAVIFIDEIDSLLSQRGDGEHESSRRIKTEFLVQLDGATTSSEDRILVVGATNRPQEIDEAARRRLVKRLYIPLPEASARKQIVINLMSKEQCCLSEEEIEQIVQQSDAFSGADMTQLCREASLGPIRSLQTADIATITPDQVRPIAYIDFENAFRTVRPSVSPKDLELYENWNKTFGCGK

Kd (RAD51 [1]): 328 nM
stoichiometry N [2]: 6
B1: FIGNL1ΔN (human FIGNL1 residues 287-674) (domain or fragment)
chain: KEDSSLPTFKTAKEQLWVDQQKKYHQPQRASGSSYGGVKKSLGASRSRGILGKFVPPIPKQDGGEQNGGMQCKPYGAGPTEPAHPVDERLKNLEPKMIELIMNEIMDHGPPVNWEDIAGVEFAKATIKEIVVWPMLRPDIFTGLRGPPKGILLFGPPGTGKTLIGKCIASQSGATFFSISASSLTSKWVGEGEKMVRALFAVARCQQPAVIFIDEIDSLLSQRGDGEHESSRRIKTEFLVQLDGATTSSEDRILVVGATNRPQEIDEAARRRLVKRLYIPLPEASARKQIVINLMSKEQCCLSEEEIEQIVQQSDAFSGADMTQLCREASLGPIRSLQTADIATITPDQVRPIAYIDFENAFRTVRPSVSPKDLELYENWNKTFGCGK

Binder: B2
stoichiometry N [3]: 6
stoichiometry N (RAD51 [4]): 2 RAD51 monomers per FIGNL1 hexamer

Binder: B3
Kd (FIGNL1ΔN(E501Q) [5]): 279 nM
binding result [6]: binds
binding result (FIGNL1ΔN(E501Q) [7]): binds
binding result [8]: binds
Kd [9]: 340 nM
Kd [10]: 109 nM

binding result [11]: binds
Kd [10]: 315 nM
B4: RAD51ΔN (RAD51 lacking the N-terminal 20 residues) (domain or fragment, human, UniProt Q06609 21-339, looked up)
chain: GPQPISRLEQCGINANDVKKLEEAGFHTVEAVAYAPKKELINIKGISEAKADKILAEAAKLVPMGFTTATEFHQRRSEIIQITTGSKELDKLLQGGIETGSITEMFGEFRTGKTQICHTLAVTCQLPIDRGGGEGKAMYIDTEGTFRPERLLAVAERYGLSGSDVLDNVAYARAFNTDHQTQLLYQASAMMVESRYALLIVDSATALYRTDYSGRGELSARQMHLARFLRMLLRLADEFGVAVVITNQVVAQVDGAAMFAADPKKPIGGNIIAHASTTRLYLRKGRGETRICKIYDSPCLPEAEAMFAINADGVGDAKD
notes: RAD51 lacking the N-terminal 20 residues; also called RAD51 with N-terminal 20 a.a. deleted
